Reference: paper doi:10.1101/494930 (bioRxiv, 2018)
Where “and” joins values, the source holds several entries; their conditions need not be identical. Identical values can stand only once.

B1: WT-HYPE (aa 102-458) (enzyme)
chain: GKLEARAALNQALEMKRQGKREKAQKLFMHALKMDPDFVDALTEFGIFSEEDKDIIQADYLYTRALTISPYHEKALVNRDRTLPLVEEIDQRYFSIIDSKVKKVMSIPKGNSALRRVMEETYYHHIYHTVAIEGNTLTLSEIRHILETRYAVPGKSLEEQNEVIGMHAAMKYINTTLVSRIGSVTISDVLEIHRRVLGYVDPVEAGRFRTTQVLVGHHIPPHPQDVEKQMQEFVQWLNSEEAMNLHPVEFAALAHYKLVYIHPFIDGNGRTSRLLMNLILMQAGYPPITIRKEQRSDYYHVLEAANEGDVRPFIRFIAKCTETTLDTLLFATTEYSVALPEAQPNHSGFKETLPVKP
B2: His6-BiP SBD (aa 418-637) (domain or fragment)
chain: not shown

Tests used:
Assay in all cases: BLI
[1] = molecular target: His6-BiP NBD (aa 28-405) (human, UniProt P11021 28-405)
[2] = molecular target: BiP-His6 (WT-BiP, aa 19-637) (human, UniProt P11021 19-637)
[3] = molecular target: B1

Chain of BiP-His6 (WT-BiP, aa 19-637) (P11021 19-637): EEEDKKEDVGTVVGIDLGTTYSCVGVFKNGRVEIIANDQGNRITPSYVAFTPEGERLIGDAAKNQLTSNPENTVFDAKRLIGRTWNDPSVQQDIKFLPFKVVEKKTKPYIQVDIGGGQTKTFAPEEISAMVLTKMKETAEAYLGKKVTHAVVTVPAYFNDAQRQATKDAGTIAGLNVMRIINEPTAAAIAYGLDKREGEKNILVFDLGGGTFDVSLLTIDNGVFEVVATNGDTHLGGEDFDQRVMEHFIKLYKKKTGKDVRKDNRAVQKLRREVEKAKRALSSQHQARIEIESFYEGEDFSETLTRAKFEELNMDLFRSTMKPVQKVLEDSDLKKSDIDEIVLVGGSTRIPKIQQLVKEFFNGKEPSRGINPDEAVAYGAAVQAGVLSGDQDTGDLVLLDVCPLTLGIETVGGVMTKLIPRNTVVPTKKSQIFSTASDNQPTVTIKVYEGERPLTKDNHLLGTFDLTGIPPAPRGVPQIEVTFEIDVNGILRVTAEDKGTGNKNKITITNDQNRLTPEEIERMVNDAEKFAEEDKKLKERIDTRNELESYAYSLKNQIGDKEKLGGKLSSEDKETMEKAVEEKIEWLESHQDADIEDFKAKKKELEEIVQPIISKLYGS
Chain of His6-BiP NBD (aa 28-405) (P11021 28-405): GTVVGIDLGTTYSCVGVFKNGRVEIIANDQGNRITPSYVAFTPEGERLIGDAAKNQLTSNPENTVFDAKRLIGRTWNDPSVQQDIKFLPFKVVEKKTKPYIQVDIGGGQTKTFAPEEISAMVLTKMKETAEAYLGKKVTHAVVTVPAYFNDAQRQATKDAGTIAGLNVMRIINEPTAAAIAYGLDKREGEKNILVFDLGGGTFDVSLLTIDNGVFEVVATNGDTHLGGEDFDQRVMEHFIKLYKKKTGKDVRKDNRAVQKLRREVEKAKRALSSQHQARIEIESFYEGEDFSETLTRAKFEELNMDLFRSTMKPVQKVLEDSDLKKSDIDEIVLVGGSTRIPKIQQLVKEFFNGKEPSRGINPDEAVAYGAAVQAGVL

Row | Binder | Kd [1] | Kd [2] | Kd [3]
1 | B1 | 3.16 µM | 4.5 µM and 6.1 µM | –
2 | B2 | – | – | 6.85 µM
